Experimental data reported in US20130281314A1.

Tests used:
UCHL5 (human) [1] = biological target: UCHL5 (human) (UniProt Q9Y5K5); assay: anti-HA IP-MS, HEK293T cells
USP25 (human) [2] = biological target: USP25 (human) (UniProt Q9UHP3); assay: anti-HA IP-MS, HEK293T cells
USP14 (human) [3] = biological target: USP14 (human) (UniProt P54578); assay: anti-HA IP-MS, HEK293T cells
OTUB1 (human) [4] = biological target: OTUB1 (human) (UniProt Q96FW1); assay: anti-HA IP-MS, HEK293T cells
USP19 (human) = USP19 (human) (UniProt O94966); assay: anti-HA IP-MS, HEK293T cells
USP34 [5] = assay: anti-HA IP-MS, HEK293T cells
USP15 (human) [6] = biological target: USP15 (human) (UniProt Q9Y4E8); assay: anti-HA IP-MS, HEK293T cells
USP47 (human) [7] = biological target: USP47 (human) (UniProt Q96K76); assay: anti-HA IP-MS, HEK293T cells
BRCC36 (human) [8] = biological target: BRCC36 (human) (UniProt P46736); assay: anti-HA IP-MS, HEK293T cells
USP10 [9] = assay: anti-HA IP-MS, HEK293T cells
USP13 (human) [10] = biological target: USP13 (human) (UniProt Q92995); assay: anti-HA IP-MS, HEK293T cells
UCHL1 [11] = biological target: UCHL1 (UniProt P09936); assay: anti-HA IP-MS, HEK293T cells
USP11 (human) [12] = biological target: USP11 (human) (UniProt P51784); assay: anti-HA IP-MS, HEK293T cells
USP8 (human) [13] = biological target: USP8 (human) (UniProt P40818); assay: anti-HA IP-MS, HEK293T cells
USP24 (human) [14] = biological target: USP24 (human) (UniProt Q9UPU5); assay: anti-HA IP-MS, HEK293T cells
USP9X (human) [15] = biological target: USP9X (human) (UniProt Q93008); assay: anti-HA IP-MS, HEK293T cells
UCHL5 (human) [16] = biological target: UCHL5 (human) (UniProt Q9Y5K5); assay: anti-HA IP-MS, WT HCT116 cells
USP25 (human) [17] = biological target: USP25 (human) (UniProt Q9UHP3); assay: anti-HA IP-MS, WT HCT116 cells
USP14 (human) [18] = biological target: USP14 (human) (UniProt P54578); assay: anti-HA IP-MS, WT HCT116 cells
OTUB1 (human) [19] = biological target: OTUB1 (human) (UniProt Q96FW1); assay: anti-HA IP-MS, WT HCT116 cells
USP34 [20] = assay: anti-HA IP-MS, WT HCT116 cells
USP15 (human) [21] = biological target: USP15 (human) (UniProt Q9Y4E8); assay: anti-HA IP-MS, WT HCT116 cells
USP47 (human) [22] = biological target: USP47 (human) (UniProt Q96K76); assay: anti-HA IP-MS, WT HCT116 cells
BRCC36 (human) [23] = biological target: BRCC36 (human) (UniProt P46736); assay: anti-HA IP-MS, WT HCT116 cells
USP10 [24] = assay: anti-HA IP-MS, WT HCT116 cells
USP13 (human) [25] = biological target: USP13 (human) (UniProt Q92995); assay: anti-HA IP-MS, WT HCT116 cells
UCHL1 [26] = biological target: UCHL1 (UniProt P09936); assay: anti-HA IP-MS, WT HCT116 cells
USP11 (human) [27] = biological target: USP11 (human) (UniProt P51784); assay: anti-HA IP-MS, WT HCT116 cells
USP8 (human) [28] = biological target: USP8 (human) (UniProt P40818); assay: anti-HA IP-MS, WT HCT116 cells
USP24 (human) [29] = biological target: USP24 (human) (UniProt Q9UPU5); assay: anti-HA IP-MS, WT HCT116 cells
USP9X (human) [30] = biological target: USP9X (human) (UniProt Q93008); assay: anti-HA IP-MS, WT HCT116 cells

Chain of BRCC36 (human) (P46736 2-316 limits assumed): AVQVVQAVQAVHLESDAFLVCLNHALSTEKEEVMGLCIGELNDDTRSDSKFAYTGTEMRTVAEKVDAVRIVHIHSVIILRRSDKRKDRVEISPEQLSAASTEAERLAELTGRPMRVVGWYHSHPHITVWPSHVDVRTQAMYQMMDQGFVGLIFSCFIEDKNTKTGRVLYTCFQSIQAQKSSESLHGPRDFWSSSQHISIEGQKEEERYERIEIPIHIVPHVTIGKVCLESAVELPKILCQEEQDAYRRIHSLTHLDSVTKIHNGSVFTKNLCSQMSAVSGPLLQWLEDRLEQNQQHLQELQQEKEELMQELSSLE
Chain of UCHL1 (P09936 1-220 limits assumed): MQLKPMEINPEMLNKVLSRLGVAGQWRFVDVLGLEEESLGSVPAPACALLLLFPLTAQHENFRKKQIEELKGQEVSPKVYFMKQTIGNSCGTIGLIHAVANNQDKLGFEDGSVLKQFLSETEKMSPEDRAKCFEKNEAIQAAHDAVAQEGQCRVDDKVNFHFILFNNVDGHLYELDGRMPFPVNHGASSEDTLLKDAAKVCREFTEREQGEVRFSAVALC
Chain of USP14 (human) (P54578 whole entry): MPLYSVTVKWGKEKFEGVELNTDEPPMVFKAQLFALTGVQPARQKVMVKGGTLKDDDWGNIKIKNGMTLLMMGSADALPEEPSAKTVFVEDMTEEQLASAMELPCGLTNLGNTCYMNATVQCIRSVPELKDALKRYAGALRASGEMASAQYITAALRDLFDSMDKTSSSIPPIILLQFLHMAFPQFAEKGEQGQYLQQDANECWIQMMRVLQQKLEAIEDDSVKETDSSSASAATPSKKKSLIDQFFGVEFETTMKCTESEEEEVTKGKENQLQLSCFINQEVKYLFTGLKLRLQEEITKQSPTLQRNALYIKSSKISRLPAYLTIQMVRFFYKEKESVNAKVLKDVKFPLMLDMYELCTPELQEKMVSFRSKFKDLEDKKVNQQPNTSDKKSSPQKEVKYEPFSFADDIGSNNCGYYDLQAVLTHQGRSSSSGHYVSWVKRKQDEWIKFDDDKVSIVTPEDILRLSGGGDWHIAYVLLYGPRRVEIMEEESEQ
Chain of USP15 (human) (Q9Y4E8 2-981 limits assumed): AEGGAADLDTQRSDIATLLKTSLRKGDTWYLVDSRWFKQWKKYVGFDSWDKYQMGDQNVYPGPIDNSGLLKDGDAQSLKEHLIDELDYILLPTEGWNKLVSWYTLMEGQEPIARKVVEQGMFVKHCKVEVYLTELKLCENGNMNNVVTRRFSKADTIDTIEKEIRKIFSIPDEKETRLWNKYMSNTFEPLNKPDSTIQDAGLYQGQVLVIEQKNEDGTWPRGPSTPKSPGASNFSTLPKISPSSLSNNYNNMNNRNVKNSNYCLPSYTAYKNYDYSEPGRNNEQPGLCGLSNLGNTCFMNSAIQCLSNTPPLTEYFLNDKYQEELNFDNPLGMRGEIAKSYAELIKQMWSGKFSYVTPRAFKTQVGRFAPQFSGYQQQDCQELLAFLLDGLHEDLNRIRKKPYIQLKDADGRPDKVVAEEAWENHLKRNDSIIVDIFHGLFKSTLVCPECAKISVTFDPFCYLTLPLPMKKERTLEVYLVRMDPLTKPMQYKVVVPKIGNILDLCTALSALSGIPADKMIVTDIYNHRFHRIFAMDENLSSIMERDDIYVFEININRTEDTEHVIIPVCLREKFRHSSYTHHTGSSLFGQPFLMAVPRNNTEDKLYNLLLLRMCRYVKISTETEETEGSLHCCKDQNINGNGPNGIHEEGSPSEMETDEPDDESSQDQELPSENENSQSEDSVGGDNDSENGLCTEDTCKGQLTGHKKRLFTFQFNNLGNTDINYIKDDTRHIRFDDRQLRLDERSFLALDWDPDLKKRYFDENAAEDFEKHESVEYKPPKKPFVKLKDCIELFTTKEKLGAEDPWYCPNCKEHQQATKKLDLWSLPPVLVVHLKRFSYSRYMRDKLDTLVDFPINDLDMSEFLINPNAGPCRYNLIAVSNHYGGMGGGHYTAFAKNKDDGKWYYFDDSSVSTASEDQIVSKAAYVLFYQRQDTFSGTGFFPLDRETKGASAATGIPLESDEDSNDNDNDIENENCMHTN
Chain of USP10 (chain, as listed by the source limits assumed): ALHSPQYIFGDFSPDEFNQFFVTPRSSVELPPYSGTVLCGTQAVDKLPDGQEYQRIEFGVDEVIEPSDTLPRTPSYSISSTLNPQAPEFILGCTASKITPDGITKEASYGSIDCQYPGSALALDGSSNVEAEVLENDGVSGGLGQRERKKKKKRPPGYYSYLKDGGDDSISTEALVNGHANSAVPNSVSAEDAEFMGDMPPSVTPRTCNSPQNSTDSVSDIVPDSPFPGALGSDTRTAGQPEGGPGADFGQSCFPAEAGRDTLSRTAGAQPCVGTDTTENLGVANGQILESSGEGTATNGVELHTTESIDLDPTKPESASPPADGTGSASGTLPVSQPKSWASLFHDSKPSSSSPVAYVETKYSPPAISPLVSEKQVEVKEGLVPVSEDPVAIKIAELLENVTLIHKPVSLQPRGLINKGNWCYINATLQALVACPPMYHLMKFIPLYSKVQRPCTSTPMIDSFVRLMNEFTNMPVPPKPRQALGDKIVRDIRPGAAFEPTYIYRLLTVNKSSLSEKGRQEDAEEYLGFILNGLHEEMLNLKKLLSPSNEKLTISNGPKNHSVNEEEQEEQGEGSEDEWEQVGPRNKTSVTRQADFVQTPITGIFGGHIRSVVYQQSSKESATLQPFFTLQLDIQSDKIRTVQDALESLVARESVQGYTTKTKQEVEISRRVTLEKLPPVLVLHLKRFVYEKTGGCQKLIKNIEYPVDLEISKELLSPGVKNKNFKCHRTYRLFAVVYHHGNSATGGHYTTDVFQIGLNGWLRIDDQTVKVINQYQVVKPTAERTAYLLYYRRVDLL
Chain of USP13 (human) (Q92995 whole entry): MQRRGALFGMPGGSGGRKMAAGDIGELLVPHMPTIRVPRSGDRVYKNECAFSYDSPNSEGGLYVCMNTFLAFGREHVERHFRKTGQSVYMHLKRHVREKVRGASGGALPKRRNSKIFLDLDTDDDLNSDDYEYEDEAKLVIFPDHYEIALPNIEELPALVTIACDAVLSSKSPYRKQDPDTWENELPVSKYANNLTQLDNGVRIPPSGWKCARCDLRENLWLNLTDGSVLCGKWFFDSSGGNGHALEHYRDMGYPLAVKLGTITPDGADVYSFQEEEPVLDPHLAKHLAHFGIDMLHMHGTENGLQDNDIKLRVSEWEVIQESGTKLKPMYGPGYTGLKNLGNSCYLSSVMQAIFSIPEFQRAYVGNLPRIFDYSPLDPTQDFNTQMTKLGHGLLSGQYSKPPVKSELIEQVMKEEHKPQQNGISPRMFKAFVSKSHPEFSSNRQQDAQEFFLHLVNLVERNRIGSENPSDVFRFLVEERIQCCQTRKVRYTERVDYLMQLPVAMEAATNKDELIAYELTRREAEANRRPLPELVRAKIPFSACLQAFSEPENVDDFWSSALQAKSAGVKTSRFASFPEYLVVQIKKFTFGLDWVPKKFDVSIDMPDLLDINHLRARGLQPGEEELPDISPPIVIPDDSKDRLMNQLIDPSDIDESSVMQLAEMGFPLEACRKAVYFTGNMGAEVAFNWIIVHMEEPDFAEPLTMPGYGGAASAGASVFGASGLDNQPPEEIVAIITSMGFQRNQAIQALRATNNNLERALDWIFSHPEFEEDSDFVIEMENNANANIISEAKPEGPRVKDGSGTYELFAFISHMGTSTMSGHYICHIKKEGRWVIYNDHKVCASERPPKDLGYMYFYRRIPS
Chain of USP11 (human) (P51784 whole entry): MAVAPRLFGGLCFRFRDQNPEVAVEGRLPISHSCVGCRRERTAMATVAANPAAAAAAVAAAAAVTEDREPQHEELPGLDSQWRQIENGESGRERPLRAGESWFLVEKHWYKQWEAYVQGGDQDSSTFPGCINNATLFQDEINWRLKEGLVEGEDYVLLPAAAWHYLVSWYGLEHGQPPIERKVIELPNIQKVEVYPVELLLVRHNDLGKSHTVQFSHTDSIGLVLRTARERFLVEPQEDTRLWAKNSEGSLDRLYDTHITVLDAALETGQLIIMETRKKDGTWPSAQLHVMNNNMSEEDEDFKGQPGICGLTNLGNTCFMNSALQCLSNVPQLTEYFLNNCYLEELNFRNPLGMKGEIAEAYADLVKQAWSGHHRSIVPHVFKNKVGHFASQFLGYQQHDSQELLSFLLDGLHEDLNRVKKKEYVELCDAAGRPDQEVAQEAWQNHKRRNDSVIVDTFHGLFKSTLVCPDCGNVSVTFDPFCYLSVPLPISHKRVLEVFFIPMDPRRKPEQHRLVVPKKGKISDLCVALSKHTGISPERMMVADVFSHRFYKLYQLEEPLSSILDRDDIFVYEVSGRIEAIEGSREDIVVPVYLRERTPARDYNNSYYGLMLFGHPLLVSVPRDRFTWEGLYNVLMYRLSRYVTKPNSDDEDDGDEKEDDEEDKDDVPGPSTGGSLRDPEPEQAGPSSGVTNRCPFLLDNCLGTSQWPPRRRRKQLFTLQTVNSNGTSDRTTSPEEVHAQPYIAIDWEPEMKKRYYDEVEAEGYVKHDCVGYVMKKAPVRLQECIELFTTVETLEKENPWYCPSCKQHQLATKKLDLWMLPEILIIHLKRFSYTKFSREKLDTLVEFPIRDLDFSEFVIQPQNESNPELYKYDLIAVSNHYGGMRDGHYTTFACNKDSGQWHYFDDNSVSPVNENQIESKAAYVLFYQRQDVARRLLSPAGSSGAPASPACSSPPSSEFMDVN
Chain of UCHL5 (human) (Q9Y5K5 whole entry): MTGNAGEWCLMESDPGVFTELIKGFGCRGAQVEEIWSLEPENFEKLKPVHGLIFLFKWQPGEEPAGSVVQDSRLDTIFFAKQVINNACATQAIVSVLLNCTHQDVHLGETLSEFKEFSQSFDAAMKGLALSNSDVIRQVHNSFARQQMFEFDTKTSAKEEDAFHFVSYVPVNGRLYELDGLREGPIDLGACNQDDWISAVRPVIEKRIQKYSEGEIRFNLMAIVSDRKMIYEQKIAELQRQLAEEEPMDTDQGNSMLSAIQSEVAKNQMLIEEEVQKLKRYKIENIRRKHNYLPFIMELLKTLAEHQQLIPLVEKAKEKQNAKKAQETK

With HA-UbΔGG the total peptides (unique peptides) (UCHL5 (human) [1]) was 9 peptides, the total peptides (unique peptides) (USP25 (human) [2]) was 2 peptides and the total peptides (unique peptides) (USP14 (human) [3]) was 4 peptides. The total peptides (unique peptides) (OTUB1 (human) [4]) was 9 peptides, the total peptides (unique peptides) (USP19 (human)) was 54 peptides and the total peptides (unique peptides) (USP34 [5]) was 1 peptides. The total peptides (unique peptides) (USP15 (human) [6]) was 1 peptides, the total peptides (unique peptides) (USP47 (human) [7]) was 2 peptides and the total peptides (unique peptides) (BRCC36 (human) [8]) was 0 peptides. The total peptides (unique peptides) (USP10 [9]) was 6 peptides, the total peptides (unique peptides) (USP13 (human) [10]) was 0 peptides and the total peptides (unique peptides) (UCHL1 [11]) was 3 peptides. The total peptides (unique peptides) (USP11 (human) [12]) was 4 peptides, the total peptides (unique peptides) (USP8 (human) [13]) was 1 peptides and the total peptides (unique peptides) (USP24 (human) [14]) was 20 peptides. For the same substance, the total peptides (unique peptides) (USP9X (human) [15]) was 40 peptides, the total peptides (unique peptides) (UCHL5 (human) [16]) was 6 peptides and the total peptides (unique peptides) (USP25 (human) [17]) was 34 peptides. For the same substance, the total peptides (unique peptides) (USP14 (human) [18]) was 3 peptides, the total peptides (unique peptides) (OTUB1 (human) [19]) was 10 peptides and the total peptides (unique peptides) (USP34 [20]) was 0 peptides. For the same substance, the total peptides (unique peptides) (USP15 (human) [21]) was 7 peptides, the total peptides (unique peptides) (USP47 (human) [22]) was 0 peptides and the total peptides (unique peptides) (BRCC36 (human) [23]) was 1 peptides. It also gave a total peptides (unique peptides) (USP10 [24]) of 8 peptides, a total peptides (unique peptides) (USP13 (human) [25]) of 1 peptides and a total peptides (unique peptides) (UCHL1 [26]) of 0 peptides. It also gave a total peptides (unique peptides) (USP11 (human) [27]) of 10 peptides, a total peptides (unique peptides) (USP8 (human) [28]) of 3 peptides and a total peptides (unique peptides) (USP24 (human) [29]) of 1 peptides. It also gave a total peptides (unique peptides) (USP9X (human) [30]) of 12 peptides.
